± gives the uncertainty stated by the source.
Test: self-splicing fitness, log relative to wild type (ln ratio); higher = more splicing; Tetrahymena group I intron in knt gene, E. coli kanamycin selection, DiMSum; sequences stand for … in CUCUCU…GGAGGGAAAAGUUAUCAGGCAUGCACCUGGUAGCUAGUCUUUAAACCAAUAGAUUGCAUCGGUUUAAAAGGCAAGACCGUCAAAUUGCGGGAAAGGGGUCAACAGCCGUUCAGUACCAAGUCUCAGGGGAAACUUUGAGAUGGCCUUGCAAAGGGUAUGGUAAUAAGCUGACGGACAUGGUCCUAACCACGCAGCCAAGUCCUAAGUCAACAGAUCUUCUGUUGAUAUGGAUGCAGUUCACAGACUAAAUGUCGGUCGGGGAAGAUGUAUUCUUCUCAUAAGAUAUAGUCGGACCUCUCCUUAAUGGGAGCUAGCGGAUGAAGUGAUGCAACACUGGAGCCGCUGGGAACUAAUUUGUAUGCGAAAGUAUAUUGAUUAGUUUUGGAGUACUCGUGGUCG
How it was run: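 Colonies from six replicate transformations of E. coli BL21(DE3) were pooled and amplicon-sequenced on an Illumina HiSeq 2500. The library placed an intron with all eight P1ex-region nucleotides randomised inside the knt kanamycin-resistance gene on pET-22b(+), and cells grew overnight at 37°C or 30°C on LB agar with or without 25 μg/mL kanamycin (plus 100 μg/mL carbenicillin, 50 μM IPTG, 0.2% rhamnose). Fitness is the DiMSum error-weighted combination of wild-type-normalised replicate fold changes, kanamycin versus none.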

Row | Sequence | self-splicing fitness (ln) (30 °C) | self-splicing fitness (ln) (37 °C)
1 | CGCCAGCAAUAUUACGCCCA | -1.42 ± 0.18 | -0.853 ± 0.19
2 | CGCCAGCAAUAUUACGCCUC | -3.25 ± 0.32 | -0.661 ± 0.29
3 | CGCCAGCAAUAUUACGCCUU | -3.11 ± 0.27 | -2.29 ± 0.26
4 | CGCCAGCAAUAUUACGCGUG | -2.06 ± 0.1 | -0.717 ± 0.093
5 | CGCCAGCAAUAUUACGCUCG | -2.21 ± 0.13 | -0.347 ± 0.14
6 | CGCCAGCAAUAUUACGGACC | -1.3 ± 0.15 | -0.361 ± 0.18
7 | CGCCAGCAAUAUUACGGGCG | – | -2.94 ± 0.4
8 | CGCCAGCAAUAUUACGGGGA | -3.02 ± 0.22 | -3.06 ± 0.27
9 | CGCCAGCAAUAUUACGGUGG | -2.06 ± 0.09 | -2.56 ± 0.18
10 | CGCCAGCAAUAUUACGUAAG | -0.207 ± 0.063 | 0.217 ± 0.074
11 | CGCCAGCAAUAUUACGUCCC | – | -2.37 ± 0.49
12 | CGCCAGCAAUAUUACGUCGA | -2.94 ± 0.12 | -1.24 ± 0.081
13 | CGCCAGCAAUAUUACGUGCG | -3.99 ± 0.26 | -2.33 ± 0.22
14 | CGCGAGCAAUAUUACGAACG | -3.04 ± 0.43 | -2.08 ± 0.32
15 | CGCGAGCAAUAUUACGAGAU | -2.7 ± 0.28 | -2.19 ± 0.26
16 | CGCGAGCAAUAUUACGAGCA | -1.27 ± 0.13 | -0.102 ± 0.18
17 | CGCGAGCAAUAUUACGCAGA | -1.75 ± 0.22 | -1.77 ± 0.18
18 | CGCGAGCAAUAUUACGCAGC | -3.62 ± 0.46 | -1.99 ± 0.34
19 | CGCGAGCAAUAUUACGCAGU | -2.99 ± 0.16 | -2.77 ± 0.17
20 | CGCGAGCAAUAUUACGCGCA | – | -2.91 ± 0.2
21 | CGCGAGCAAUAUUACGCGGA | -2.15 ± 0.22 | -2.71 ± 0.31
22 | CGCGAGCAAUAUUACGGAAA | -2.72 ± 0.26 | -2.24 ± 0.3
23 | CGCGAGCAAUAUUACGGAUC | -2.62 ± 0.23 | -2.28 ± 0.25
24 | CGCGAGCAAUAUUACGGUAA | -2.58 ± 0.23 | -1.58 ± 0.31
25 | CGCGAGCAAUAUUACGGUAC | -3.55 ± 0.22 | -3.97 ± 0.42

Row | Sequence | self-splicing fitness (ln) (30 °C) | self-splicing fitness (ln) (37 °C)
26 | CGCGAGCAAUAUUACGGUCA | -2.23 ± 0.17 | -1.63 ± 0.15
27 | CGCGAGCAAUAUUACGGUUA | -2.88 ± 0.26 | -0.646 ± 0.18
28 | CGCGAGCAAUAUUACGUCGU | -3.51 ± 0.23 | -3.58 ± 0.31
29 | CGCGAGCAAUAUUACGUGAA | -3.57 ± 0.28 | -2.56 ± 0.35
30 | CGCGAGCAAUAUUACGUGCA | -2.08 ± 0.099 | -0.511 ± 0.095
31 | CGCGAGCAAUAUUACGUGGU | -3.27 ± 0.15 | -2.64 ± 0.21
32 | CGCGAGCAAUAUUACGUGUC | -3.46 ± 0.19 | -2.6 ± 0.2
33 | CGCUAGCAAUAUUACGAAGA | -2.12 ± 0.46 | –
34 | CGCUAGCAAUAUUACGAGCG | -4.02 ± 0.39 | -2.69 ± 0.39
35 | CGCUAGCAAUAUUACGAGUA | -0.852 ± 0.11 | -0.525 ± 0.11
36 | CGCUAGCAAUAUUACGCCAA | – | -0.881 ± 0.32
37 | CGCUAGCAAUAUUACGCCCG | -2.1 ± 0.22 | -0.695 ± 0.35
38 | CGCUAGCAAUAUUACGCCCU | 0.0689 ± 0.15 | -0.957 ± 0.24
39 | CGCUAGCAAUAUUACGCCUG | 0.202 ± 0.13 | 0.152 ± 0.16
40 | CGCUAGCAAUAUUACGCGAG | -2.93 ± 0.28 | -2.56 ± 0.21
41 | CGCUAGCAAUAUUACGCGUC | -3.34 ± 0.32 | -3.09 ± 0.39
42 | CGCUAGCAAUAUUACGCUAG | -2.63 ± 0.22 | -2.16 ± 0.27
43 | CGCUAGCAAUAUUACGGACC | -2.14 ± 0.31 | –
44 | CGCUAGCAAUAUUACGGGAU | -3.77 ± 0.36 | -2.4 ± 0.26
45 | CGCUAGCAAUAUUACGGGGC | -2.87 ± 0.22 | -2.29 ± 0.2
46 | CGCUAGCAAUAUUACGGGGG | -2.53 ± 0.14 | -2.43 ± 0.16
47 | CGCUAGCAAUAUUACGGGUC | -3.08 ± 0.21 | -2.9 ± 0.34
48 | CGCUAGCAAUAUUACGGUAU | -3.03 ± 0.15 | -2.39 ± 0.19
49 | CGCUAGCAAUAUUACGUAAU | -3.03 ± 0.16 | -1.53 ± 0.14
50 | CGCUAGCAAUAUUACGUACC | -1.89 ± 0.27 | -0.55 ± 0.2
